# Test results: the supplement of paper PMC5998384
# How the values were obtained:
# HeLa Kyoto [1] = assay: solubility change mitosis vs G1/S (difference of NP-40 vs SDS log2 ratios) (log2 ratio difference); higher = more soluble in mitosis
# HeLa Kyoto [2] = assay: solubility in G1/S (NP-40 vs SDS abundance) (log2 ratio); higher = more soluble; conditions: cell cycle stage: G1/S
# 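Wherever solubility change mitosis vs G1/S (difference of NP-40 vs SDS log2 ratios) is given: synchronized HeLa Kyoto cells (double thymidine block for G1/S, nocodazole release for mitosis), protein amounts in NP-40 versus SDS lysates quantified by mass spectrometry, three biological replicates.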
# 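Wherever solubility in G1/S (NP-40 vs SDS abundance) is given: HeLa Kyoto cells arrested at G1/S by double thymidine block, proteins quantified by TMT10plex mass spectrometry in mild NP-40 versus SDS extracts, three biological replicates.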
Sequence,solubility change mitosis (log2) (HeLa Kyoto [1]),solubility in G1/S (log2) (HeLa Kyoto [2])
MPLSSPNAAATASDMDKNSGSNSSSASSGSSKGQQPPRSASAGPAGESKPKSDGKNSSGSKRYNRKRELSYPKNESFNNQSRRSSSQKSKTFNKMPPQRGGGSSKLFSSSFNGGRRDEVAEAQRAEFSPAQFSGPKKINLNHLLNFTFEPRGQTGHFEGSGHGSWGKRNKWGHKPFNKELFLQANCQFVVSEDQDYTAHFADPDTLVNWDFVEQVRICSHEVPSCPICLYPPTAAKITRCGHIFCWACILHYLSLSEKTWSKCPICYSSVHKKDLKSVVATESHQYVVGDTITMQLMKREKGVLVALPKSKWMNVDHPIHLGDEQHSQYSKLLLASKEQVLHRVVLEEKVALEQQLAEEKHTPESCFIEAAIQELKTREEALSGLAGSRREVTGVVAALEQLVLMAPLAKESVFQPRKGVLEYLSAFDEETTEVCSLDTPSRPLALPLVEEEEAVSEPEPEGLPEACDDLELADDNLKEGTICTESSQQEPITKSGFTRLSSSPCYYFYQAEDGQHMFLHPVNVRCLVREYGSLERSPEKISATVVEIAGYSMSEDVRQRHRYLSHLPLTCEFSICELALQPPVVSKETLEMFSDDIEKRKRQRQKKAREERRRERRIEIEENKKQGKYPEVHIPLENLQQFPAFNSYTCSSDSALGPTSTEGHGALSISPLSRSPGSHADFLLTPLSPTASQGSPSFCVGSLEEDSPFPSFAQMLRVGKAKADVWPKTAPKKDENSLVPPAPVDSDGESDNSDRVPVPSFQNSFSQAIEAAFMKLDTPATSDPLSEEKGGKKRKKQKQKLLFSTSVVHTK [RNF10],-0.000862,-0.172
MPQKDPCQKQACEIQKCLQANSYMESKCQAVIQELRKCCAQYPKGRSVVCSGFEKEEEENLTRKSASK [CMC4],0.221,-1.4
MPSRAEDYEVLYTIGTGSYGRCQKIRRKSDGKILVWKELDYGSMTEAEKQMLVSEVNLLRELKHPNIVRYYDRIIDRTNTTLYIVMEYCEGGDLASVITKGTKERQYLDEEFVLRVMTQLTLALKECHRRSDGGHTVLHRDLKPANVFLDGKQNVKLGDFGLARILNHDTSFAKTFVGTPYYMSPEQMNRMSYNEKSDIWSLGCLLYELCALMPPFTAFSQKELAGKIREGKFRRIPYRYSDELNEIITRMLNLKDYHRPSVEEILENPLIADLVADEQRRNLERRGRQLGEPEKSQDSSPVLSELKLKEIQLQERERALKAREERLEQKEQELCVRERLAEDKLARAENLLKNYSLLKERKFLSLASNPELLNLPSSVIKKKVHFSGESKENIMRSENSESQLTSKSKCKDLKKRLHAAQLRAQALSDIEKNYQLKSRQILGMR [NEK2],0.191,-0.123
MPSSTSPDQGDDLENCILRFSDLDLKDMSLINPSSSLKAELDGSTKKKYSFAKKKAFALFVKTKEVPTKRSFECKEKLWKCCRQLFTDQTSIHRHVATQHADEIYHQTASILKQLAVTLSTSKSLSSADEKNPLKECLPHSHDVSAWLPDISCFNPDELISGQGSEEGEVLLYYCYHDLEDPQWICAWQTALCQHLHLTGKIRIAAEGINGTVGGSKLATRLYVEVMLSFPLFKDDLCKDDFKTSKGGAHCFPELRVGVFEEIVPMGISPKKISYKKPGIHLSPGEFHKEVEKFLSQANQEQSDTILLDCRNFYESKIGRFQGCLAPDIRKFSYFPSYVDKNLELFREKRVLMYCTGGIRCERGSAYLKAKGVCKEVFQLKGGIHKYLEEFPDGFYKGKLFVFDERYALSYNSDVVSECSYCGARWDQYKLCSTPQCRQLVLTCPACQGQGFTACCVTCQDKGSRKVSGPMQDSFKEECECTARRPRIPRELLQHVRQPVSPEPGPDADEDGPVLM [TSTD2],-0.113,0.0173
MPVQAAQWTEFLSCPICYNEFDENVHKPISLGCSHTVCKTCLNKLHRKACPFDQTAINTDIDVLPVNFALLQLVGAQVPDHQSIKLSNLGENKHYEVAKKCVEDLALYLKPLSGGKGVASLNQSALSRPMQRKLVTLVNCQLVEEEGRVRAMRAARSLGERTVTELILQHQNPQQLSANLWAAVRARGCQFLGPAMQEEALKLVLLALEDGSALSRKVLVLFVVQRLEPRFPQASKTSIGHVVQLLYRASCFKVTKRDEDSSLMQLKEEFRSYEALRREHDAQIVHIAMEAGLRISPEQWSSLLYGDLAHKSHMQSIIDKLQSPESFAKSVQELTIVLQRTGDPANLNRLRPHLELLANIDPNPDAVSPTWEQLENAMVAVKTVVHGLVDFIQNYSRKGHETPQPQPNSKYKTSMCRDLRQQGGCPRGTNCTFAHSQEELEKYRLRNKKINATVRTFPLLNKVGVNNTVTTTAGNVISVIGSTETTGKIVPSTNGISNAENSVSQLISRSTDSTLRALETVKKVGKVGANGQNAAGPSADSVTENKIGSPPKTPVSNVAATSAGPSNVGTELNSVPQKSSPFLTRVPVYPPHSENIQYFQDPRTQIPFEVPQYPQTGYYPPPPTVPAGVAPCVPRFVRSNNVPESSLPPASMPYADHYSTFSPRDRMNSSPYQPPPPQPYGPVPPVPSGMYAPVYDSRRIWRPPMYQRDDIIRSNSLPPMDVMHSSVYQTSLRERYNSLDGYYSVACQPPSEPRTTVPLPREPCGHLKTSCEEQIRRKPDQWAQYHTQKAPLVSSTLPVATQSPTPPSPLFSVDFRADFSESVSGTKFEEDHLSHYSPWSCGTIGSCINAIDSEPKDVIANSNAVLMDLDSGDVKRRVHLFETQRRTKEEDPIIPFSDGPIISKWGAISRSSRTGYHTTDPVQATASQGSATKPISVSDYVPYVNAVDSRWSSYGNEATSSAHYVERDRFIVTDLSGHRKHSSTGDLLSLELQQAKSNSLLLQREANALAMQQKWNSLDEGRHLTLNLLSKEIELRNGELQSDYTEDATDTKPDRDIELELSALDTDEPDGQSEPIEEILDIQLGISSQNDQLLNGMAVENGHPVQQHQKEPPKQKKQSLGEDHVILEEQKTILPVTSCFSQPLPVSISNASCLPITTSVSAGNLILKTHVMSEDKNDFLKPVANGKMVNS [RC3H2],-0.128,0.279
MPVQAPQWTDFLSCPICTQTFDETIRKPISLGCGHTVCKMCLNKLHRKACPFDQTTINTDIELLPVNSALLQLVGAQVPEQQPITLCSGVEDTKHYEEAKKCVEELALYLKPLSSARGVGLNSTTQSVLSRPMQRKLVTLVHCQLVEEEGRIRAMRAARSLGERTVTELILQHQNPQQLSSNLWAAVRARGCQFLGPAMQEEALKLVLLALEDGSALSRKVLVLFVVQRLEPRFPQASKTSIGHVVQLLYRASCFKVTKRDEDSSLMQLKEEFRTYEALRREHDSQIVQIAMEAGLRIAPDQWSSLLYGDQSHKSHMQSIIDKLQTPASFAQSVQELTIALQRTGDPANLNRLRPHLELLANIDPSPDAPPPTWEQLENGLVAVRTVVHGLVDYIQNHSKKGADQQQPPQHSKYKTYMCRDMKQRGGCPRGASCTFAHSQEELEKFRKMNKRLVPRRPLSASLGQLNEVGLPSAAILPDEGAVDLPSRKPPALPNGIVSTGNTVTQLIPRGTDPSYDSSLKPGKIDHLSSSAPGSPPDLLESVPKSISALPVNPHSIPPRGPADLPPMPVTKPLQMVPRGSQLYPAQQTDVYYQDPRGAAPPFEPAPYQQGMYYTPPPQCVSRFVRPPPSAPEPAPPYLDHYPPYLQERVVNSQYGTQPQQYPPIYPSHYDGRRVYPAPSYTREEIFRESPIPIEIPPAAVPSYVPESRERYQQIESYYPVAPHPTQIRPSYLREPPYSRLPPPPQPHPSLDELHRRRKEIMAQLEERKVISPPPFAPSPTLPPTFHPEEFLDEDLKVAGKYKGNDYSQYSPWSCDTIGSYIGTKDAKPKDVVAAGSVEMMNVESKGMRDQRLDLQRRAAETSDDDLIPFGDRPTVSRFGAISRTSKTIYQGAGPMQAMAPQGAPTKSINISDYSPYGTHGGWGASPYSPHQNIPSQGHFSERERISMSEVASHGKPLPSAEREQLRLELQQLNHQISQQTQLRGLEAVSNRLVLQREANTLAGQSQPPPPPPPKWPGMISSEQLSLELHQVEREIGKRTRELSMENQCSLDMKSKLNTSKQAENGQPEPQNKVPAEDLTLTFSDVPNGSALTQENISLLSNKTSSLNLSEDPEGGGDNNDSQRSGVTPSSAP [RC3H1],-0.0375,0.308
